From the nanobody polyreactivity screen of Harvey et al. (2022)

Assay: yeast display, Sf9 membrane polyspecificity reagent, FACS + sequencing; frameworks hold sequencing errors
Method in brief: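 Using colony PCR, genes from sorted yeast display clones were amplified, then sequenced on MiSeq at 2 × 250 and filtered by CDR length. The clones had been stained with 10% biotinylated, detergent-solubilized Sf9 membrane reagent for 1 hour at 4 °C and sorted by FACS into low and high (top ~1%) gates on anti-HA and streptavidin fluorescence. Polyreactivity labels come from the gate of origin.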

Sequence | polyreactivity (PSR sort gate)
QVQLVESGGGVVQAGGSLRLSCAASGRIFNWYAMGWYRQAPGKEREFVAAINWNGDSTHYADSVKGRFTISRDNAKNTVYLLMNSLKPEDTAVYYCNARVFVTRSYYWGQGTQVNVSS | low polyreactivity
QVQLVESGGGVVQAGGSLRLSCAASGRILRGYALGWYRPAPGTERELVAAITWRGGSTYYADSVKGRFTISRDNAKNTVYLQMNSLKPEDTAVYYCAADRAYRYEMDYWGQGTQVTVSS | high polyreactivity
QVQLVESGGGVVQAGGSLRLSCAASGSIFDPYAMGWYRHARGKERELVAALNSDGSTNYADSVKGRFTISRDNAKNTDYLQLNSLKPEDTAVYYCAARTFTLRGDDSWGQGSQVTVSS | low polyreactivity
QVQLVESGGGVVQAGGSLRLSCAASGSIFPENARGWYRQAPGKERELVAAITSSDSSTYYADSVKGRFTISRDNAKNTVYLQMNSLKPEDTAVYYCAAYRVGFRFREYYWGLGTQVTVSS | low polyreactivity
QVQLVESGGGVVQAGGSLRLSCAASGSIFPYNAMGWYRPAPGKERELVAVITSSGGSTYYADSVKGRFTISRDNAKNTVYLQMNSLKPEDTAVYYVAARGYNYYFGGYDYWGQGTQVTVSS | low polyreactivity
QVQLVESGGGVVQAGGSLRLSCAASGSPFGFYTMGGYRQAPGKERELVAAISWSTGRTYYADSVKGRFTISRDKAKNTVDLQMNSLKPEDTAVYYCAADYYWKLFHEPPAVYDYDYWGQGTQVTVSS | low polyreactivity
QVQLVESGGGVVQAGGSLRLSCAASGSTFRPYAMGWYRQAPGKERELVAAITFNGDTYADSVKGRFTISRDNAKNTVYLQMNSLKPEDTAVYYCAARNWYYYLRPWTSVGGYYWGQGTQVNVSS | high polyreactivity
QVQLVESGGGVVQAGGSLRLSCAASGSTFYAYAMGWYRQAPGKERELVAGISKRVGRTYYADSVKGRFTISRDNAKNTVYLQRNSLKPEDTAVYYCAAQFYLFYEYEYWGQGTQVTVSS | high polyreactivity
QVQLVESGGGVVQAGGSLRLSCAASGSTFYPYALGWYRQAPGKERELVAGITVIDGSTYYADSVKGRFTISRDNAKNTVYLQMNSLKPEDTAVYYCAVDAPNQVQEYGYWGQGTQVTVSS | low polyreactivity
QVQLVESGGGVVQAGGSLRLSCAASGSTLRDYVMGWYRQAPGKERELVAAITSRVDDTYYADSVKGRFTISRDNAKNNVYLEMNRLKPEDTAVYYCAADYSVTLRIGGYYWFYAFDYWGQGTQVTVSS | low polyreactivity
QVQLVESGGGVVQAGGSLRLSCAASGTTFSWYAMGGYRQAPGKERVLVAAISSGGSTNYADSVKGRFTISRDNAKNTVYLQMNSLKPEDTAVYYCAAVWSRYLISYSTGWWFEYWGQGTQVTVSS | low polyreactivity
QVQLVESGGGVVQAGGSLRLSCAATGFTFAANTKGWYRQPPGKERELVADISGRGDRTSYADSVKGRFTISRDNAKYTVYLQINSLKPEDTAVYYCAVDIFYYSNVHYYYWGQGTQVTVSS | low polyreactivity
QVQLVESGGGVVQAGGSLRLSCAATGSTFYSYAMGWYRQAPGKEREFVASITRSGVRTYYADSVKGRFTISRDNAKNTVYLQMNSLKPDDTAFYYCAAERYYFPRSYRYGYWGQGTQVTVSS | low polyreactivity
QVQLVESGGGVVQAGGSLRLSCAGSGFTFIYYAMGWYRQAPGTERELVAAITTSRGRTDSADSVKGRVTISRDNAKNTVYLQMNSLKPEDTAVYYCNAVVYTKYYFIPWYPYDYWGHGTQVTVSS | high polyreactivity
QVQLVESGGGVVQAGGSLRLSCASSGRTFSRYTMGWYRQAPGKERELVAVITASGTSTYYADSVKGRFTISRDNAKYTVYLQMISQKPEDTAVYYCAAYYPTYYRYSSLTMNYWGQGTQVTVSS | high polyreactivity
QVQLVESGGLLVQAGGSLRLSCAASGSTFYYNDMGWYRQAPGKEREFVAAISSRGGSTYDADSVKGRFTISRDNAKNTVYLQMNSLKPEDTAVYYCAAKDRHRYDWGQGTQVTVSS | high polyreactivity

Sequence | polyreactivity (PSR sort gate)
QVQLVESGGLLVQAGGSLRLTCAASGSTFGRNAMGWYRQATGKERQLVAAITASGGTTYYADSVKGRFTISRDNAKNTVYLHMNSLKPEDTAVYDCARAGHFSFKYDYWGQGTQVTVSS | low polyreactivity
QVQLVESGGRIVQAGGSLRLSCAASGIIFYLYTMGWYRQAPGKERQFVADISSGTTTYYADSVKGRFTISRDNAKNTVYLQMNSLKPADSAVYYCAAQLFRELYWGQGTQVTVSS | high polyreactivity
QVQLVESGGRKVQAGGSLRLICAASGSIFYAYTMGRYRQAPGKERELSTYADSVKGRFTISRDNAKNTVYLQMNSLKPEDTAVYYCNARFYKKTLSYRVKYRMEYWGQGTQVTVSS | low polyreactivity
QVQLVESGGRLFQAGGSLRLSCAASGRNFCRYVMGWYRQAPGKERELVATISSGGSTNYADSVKGRFTISRDNAKNTVYLQMNSMKTEVTAVYYSAAYIYDGFWVYPYYPYDYWGQGTQVTVSS | low polyreactivity
QVQLVESGGRLGQAGGSLRLRCAASGYNFGTYDMGWYRPAPGKERELVAAISIGGSTNYADSVKGRFTISRDNAKNTVYLQMNSLKPEDTAVYYCAAEVNVGTLLLSVIVEDGDYWGQGTEVTVSS | low polyreactivity
QVQLVESGGRLVKAGGSLRLSCPASGRIFADYAMGWYRQAPGKESELVADIRRSGGRTYYADSVKGRFTISRDNAKNTVYIQMNSLKPEDTAVYYCATDYGSWGDYSGNYDYWGQGTQVTVSS | low polyreactivity
QVQLVESGGRLVQAGGILRLSCAASGSTFDKNAMGWYRQAPGKERQLVAAINNGGGTTYYADSVKGRFTISRDNAKNTVYLQMNSLKPEDTAVYYCAAVGKAYWSDYQYRYYYWGQGTQVTVSS | low polyreactivity
QVQLVESGGRLVQAGGRLRLRSAASGFTFSRNAMGWYRQAPGKERELVAAIDSGGSTDYAVSVKGRFTISRDNAKNTVYLQMNSLKPADTAVYYCAKASSATRYVQLRQDYDYWGQGTQVTVSS | low polyreactivity
QVQLVESGGRLVQAGGSLRISRAASGFTFPSYTMGWYRQAPGKERELVAAITSSGGNTYYADSVKGRFTISRDNAKNTVYLQMNSLKPEVTAVYYCATVSVRWPSNDHVRYDYWGQGTQVTVSS | low polyreactivity
QVQLVESGGRLVQAGGSLRLICADSGGIFGRYAMGWSRQAHGKERELVAAISKNGDSTYYAYSVKGRFTISRDNAKNTVYLKMNSLKPEDTAVYYCAAAKYRPKYGKNDYLGQGTQVTVSS | low polyreactivity
QVQLVESGGRLVQAGGSLRLRCAASGFIFGWYTMGWYRQAPGKERELVASISRSGGSTYYADSVKGRFTISRDNEKNTVYVQMNSLKPEDTAVSYCAKRSLVDAHGYWGQGTQVTVSS | high polyreactivity
QVQLVESGGRLVQAGGSLRLSCAASGFIFAYNAMGWYRQAPGKERELVAAISWSGGSTYYADSVKGRFTISRDNAKNTVYLQMNSLKPEDTAVSYCNKYIRYPFKRYGYWGQGTQVTVSS | high polyreactivity
QVQLVESGGRLVQAGGSLRLSCAASGFIFGTYAMGWYRQAPGKEREFVAAITRSGSSTYYADSVKGRFTISRDNAKNTVYLQMNSLKPEDTAVYYCAADLTRGRFRYYYWGQGTQVTVSS | high polyreactivity
QVQLVESGGRLVQAGGSLRLSCAASGFIFVGNDMAWYRQAPGKVRELVAAISSGGTTNYADSVKGRFTNSRDNAKNTVYLQMNSLKPEDTAVYDCAADYDYRQGYDSVHLDYWGQGTQVTVSS | low polyreactivity
QVQLVESGGRLVQAGGSLRLSCAASGFIFYSYDMGWYRQAPGKERELVAAIDSRGVNTYYADSVKGRFTISRDNAKNTVYLQMNSLKPEDTAVYYCAAEVVYPVYEYDYWGQGTQVTVSS | low polyreactivity
